Broadly, the IC50 is the point on the concentration scale where inhibition reaches its midpoint.

Consider four molecules from US20140087995A1 (published 2014).

Numbered stars: 1 amine (or outer) side, 2 acyl side, 3 side chain; on linkers, the order of the positions; unused ones are H or OH. Bridge positions count the residues as written; N and C are the ends. Side chains are listed from the residue outwards. Ends that are not written are not given here. * marks the point of attachment. C20 diacid = O=C(O)CCCCCCCCCCCCCCCCCCC(=O)*; γGlu = O=C(O)[C@H](CCC(=O)[*:2])N[*:1]

Assay [1] has as its target T1, rat calcitonin receptor (rat, UniProt P32214 25-516).
T1 construct: whole, on cells; Used as membranes prepared from the transfected cells; also called rCTR; rCT
T1 sequence (looked up): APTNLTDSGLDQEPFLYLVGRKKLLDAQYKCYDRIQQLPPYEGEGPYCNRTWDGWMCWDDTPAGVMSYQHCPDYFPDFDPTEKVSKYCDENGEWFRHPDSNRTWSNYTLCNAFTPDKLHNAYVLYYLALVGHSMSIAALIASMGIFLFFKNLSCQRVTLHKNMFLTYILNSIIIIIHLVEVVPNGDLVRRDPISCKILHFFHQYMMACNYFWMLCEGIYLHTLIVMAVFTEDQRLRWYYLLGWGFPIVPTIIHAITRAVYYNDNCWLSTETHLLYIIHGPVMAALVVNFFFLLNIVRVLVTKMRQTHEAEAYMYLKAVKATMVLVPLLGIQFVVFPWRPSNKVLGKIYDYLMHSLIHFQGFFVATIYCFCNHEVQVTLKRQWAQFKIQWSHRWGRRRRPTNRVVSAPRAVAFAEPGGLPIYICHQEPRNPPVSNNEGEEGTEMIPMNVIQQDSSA
Description: SPA competition with 125I-calcitonin, membranes with rat calcitonin receptor (Assay VIII).

The target of assay [2] is T2, human calcitonin receptor (human, UniProt P30988 25-474).
T2 construct: whole, on cells; Used as membranes prepared from the transfected cells; also called hCTR; hCT
T2 sequence (looked up): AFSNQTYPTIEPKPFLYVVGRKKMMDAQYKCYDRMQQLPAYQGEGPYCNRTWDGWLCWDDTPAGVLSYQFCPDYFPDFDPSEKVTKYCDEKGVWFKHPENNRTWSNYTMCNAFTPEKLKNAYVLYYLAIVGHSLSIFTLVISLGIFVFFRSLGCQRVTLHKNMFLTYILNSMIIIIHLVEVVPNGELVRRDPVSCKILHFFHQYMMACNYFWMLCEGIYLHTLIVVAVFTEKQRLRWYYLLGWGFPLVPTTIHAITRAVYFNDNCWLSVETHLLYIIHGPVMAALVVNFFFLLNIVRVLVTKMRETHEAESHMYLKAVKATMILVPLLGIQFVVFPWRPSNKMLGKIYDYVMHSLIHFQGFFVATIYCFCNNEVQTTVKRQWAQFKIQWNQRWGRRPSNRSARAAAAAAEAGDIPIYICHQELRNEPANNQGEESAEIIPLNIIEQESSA
Description: ratio of binding IC50 at human calcitonin receptor to IC50 at human amylin receptor (reference). An outline of the steps: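 IC₅₀ values were derived by one-site competition analysis of SPA counts. Cell membranes (35 ng/μL) with SPA beads were incubated with test compounds for 120 min at 25° C in Hepes buffer, pH 7.4, containing CaCl2, MgCl₂, OA and Tween20.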

The target in assay [3] is T1, rat calcitonin receptor. Description: ratio of binding IC50 at rat calcitonin receptor to IC50 at rat amylin receptor (reference).

B1: N^ε1-[(4S)-4-carboxy-4-(19-carboxynonadecanoylamino)butanoyl]-[Arg14,Arg17,Pro21,Pro27]-h-amylin (peptide)
peptide: K([γGlu-C20 diacid])CNTATCATQRLARFLRHSSPNFGAIPSSTNVGSNTY-NH2
modifications: disulfide 2-7; N-terminus assumed
SMILES: CC[C@H](C)[C@H](NC(=O)[C@H](C)NC(=O)CNC(=O)[C@H](Cc1ccccc1)NC(=O)[C@H](CC(N)=O)NC(=O)[C@@H]1CCCN1C(=O)[C@H](CO)NC(=O)[C@H](CO)NC(=O)[C@H](Cc1c[nH]cn1)NC(=O)[C@H](CCCNC(=N)N)NC(=O)[C@H](CC(C)C)NC(=O)[C@H](Cc1ccccc1)NC(=O)[C@H](CCCNC(=N)N)NC(=O)[C@H](C)NC(=O)[C@H](CC(C)C)NC(=O)[C@H](CCCNC(=N)N)NC(=O)[C@H](CCC(N)=O)NC(=O)[C@@H](NC(=O)[C@H](C)NC(=O)[C@@H]1CSSC[C@H](NC(=O)[C@@H](N)CCCCNC(=O)CC[C@H](NC(=O)CCCCCCCCCCCCCCCCCCC(=O)O)C(=O)O)C(=O)N[C@@H](CC(N)=O)C(=O)N[C@@H]([C@@H](C)O)C(=O)N[C@@H](C)C(=O)N[C@@H]([C@@H](C)O)C(=O)N1)[C@@H](C)O)C(=O)N1CCC[C@H]1C(=O)N[C@@H](CO)C(=O)N[C@@H](CO)C(=O)N[C@H](C(=O)N[C@@H](CC(N)=O)C(=O)N[C@H](C(=O)NCC(=O)N[C@@H](CO)C(=O)N[C@@H](CC(N)=O)C(=O)N[C@H](C(=O)N[C@@H](Cc1ccc(O)cc1)C(N)=O)[C@@H](C)O)C(C)C)[C@@H](C)O
notes: Analogue of human amylin; disulfide and C-terminal amide as told for h-amylin; also called compound 83
On to B1, for which the IC50 with rat calcitonin receptor [1] was 140 nM. Also, the “Ratio hCT/hAmylin binding” value in assay [2] is 146. Besides, in the assay with rat calcitonin receptor [3], the “Ratio rCT/rAmylin binding” value came to 49.7.

B2: N^ε1-[(4S)-4-carboxy-4-(19-carboxynonadecanoylamino)butanoyl]-[Arg17,Pro21,Pro27,Arg34]-h-amylin (peptide)
peptide: K([γGlu-C20 diacid])CNTATCATQRLANFLRHSSPNFGAIPSSTNVGRNTY-NH2
modifications: disulfide 2-7; N-terminus assumed
SMILES: CC[C@H](C)[C@H](NC(=O)[C@H](C)NC(=O)CNC(=O)[C@H](Cc1ccccc1)NC(=O)[C@H](CC(N)=O)NC(=O)[C@@H]1CCCN1C(=O)[C@H](CO)NC(=O)[C@H](CO)NC(=O)[C@H](Cc1c[nH]cn1)NC(=O)[C@H](CCCNC(=N)N)NC(=O)[C@H](CC(C)C)NC(=O)[C@H](Cc1ccccc1)NC(=O)[C@H](CC(N)=O)NC(=O)[C@H](C)NC(=O)[C@H](CC(C)C)NC(=O)[C@H](CCCNC(=N)N)NC(=O)[C@H](CCC(N)=O)NC(=O)[C@@H](NC(=O)[C@H](C)NC(=O)[C@@H]1CSSC[C@H](NC(=O)[C@@H](N)CCCCNC(=O)CC[C@H](NC(=O)CCCCCCCCCCCCCCCCCCC(=O)O)C(=O)O)C(=O)N[C@@H](CC(N)=O)C(=O)N[C@@H]([C@@H](C)O)C(=O)N[C@@H](C)C(=O)N[C@@H]([C@@H](C)O)C(=O)N1)[C@@H](C)O)C(=O)N1CCC[C@H]1C(=O)N[C@@H](CO)C(=O)N[C@@H](CO)C(=O)N[C@H](C(=O)N[C@@H](CC(N)=O)C(=O)N[C@H](C(=O)NCC(=O)N[C@@H](CCCNC(=N)N)C(=O)N[C@@H](CC(N)=O)C(=O)N[C@H](C(=O)N[C@@H](Cc1ccc(O)cc1)C(N)=O)[C@@H](C)O)C(C)C)[C@@H](C)O
notes: Analogue of human amylin; disulfide and C-terminal amide as told for h-amylin; also called compound 79
On to B2, for which the IC50 with rat calcitonin receptor [1] was found to be 35.5 nM. Further, in assay [2], the “Ratio hCT/hAmylin binding” value is 46.1. Further, the “Ratio rCT/rAmylin binding” value with rat calcitonin receptor [3] was found to be 21.5.

B3: N^ε1-[(4S)-4-carboxy-4-(19-carboxynonadecanoylamino)butanoyl]-[Arg17,Pro21,Pro27,His34]-h-amylin (peptide)
peptide: K([γGlu-C20 diacid])CNTATCATQRLANFLRHSSPNFGAIPSSTNVGHNTY-NH2
modifications: disulfide 2-7; N-terminus assumed
SMILES: CC[C@H](C)[C@H](NC(=O)[C@H](C)NC(=O)CNC(=O)[C@H](Cc1ccccc1)NC(=O)[C@H](CC(N)=O)NC(=O)[C@@H]1CCCN1C(=O)[C@H](CO)NC(=O)[C@H](CO)NC(=O)[C@H](Cc1c[nH]cn1)NC(=O)[C@H](CCCNC(=N)N)NC(=O)[C@H](CC(C)C)NC(=O)[C@H](Cc1ccccc1)NC(=O)[C@H](CC(N)=O)NC(=O)[C@H](C)NC(=O)[C@H](CC(C)C)NC(=O)[C@H](CCCNC(=N)N)NC(=O)[C@H](CCC(N)=O)NC(=O)[C@@H](NC(=O)[C@H](C)NC(=O)[C@@H]1CSSC[C@H](NC(=O)[C@@H](N)CCCCNC(=O)CC[C@H](NC(=O)CCCCCCCCCCCCCCCCCCC(=O)O)C(=O)O)C(=O)N[C@@H](CC(N)=O)C(=O)N[C@@H]([C@@H](C)O)C(=O)N[C@@H](C)C(=O)N[C@@H]([C@@H](C)O)C(=O)N1)[C@@H](C)O)C(=O)N1CCC[C@H]1C(=O)N[C@@H](CO)C(=O)N[C@@H](CO)C(=O)N[C@H](C(=O)N[C@@H](CC(N)=O)C(=O)N[C@H](C(=O)NCC(=O)N[C@@H](Cc1c[nH]cn1)C(=O)N[C@@H](CC(N)=O)C(=O)N[C@H](C(=O)N[C@@H](Cc1ccc(O)cc1)C(N)=O)[C@@H](C)O)C(C)C)[C@@H](C)O
notes: Analogue of human amylin; disulfide and C-terminal amide as told for h-amylin; also called compound 77
Consider B3, for which the IC50 with rat calcitonin receptor [1] turned out to be 205 nM. Also, in assay [2], the “Ratio hCT/hAmylin binding” value was 118. Further, the “Ratio rCT/rAmylin binding” value with rat calcitonin receptor [3] worked out at 137.

B4: N^ε1-[(4S)-4-carboxy-4-(19-carboxynonadecanoylamino)butanoyl]-[His14,Arg17,Pro21,Pro27,Arg34]-h-amylin (peptide)
peptide: K([γGlu-C20 diacid])CNTATCATQRLAHFLRHSSPNFGAIPSSTNVGRNTY-NH2
modifications: disulfide 2-7; N-terminus assumed
SMILES: CC[C@H](C)[C@H](NC(=O)[C@H](C)NC(=O)CNC(=O)[C@H](Cc1ccccc1)NC(=O)[C@H](CC(N)=O)NC(=O)[C@@H]1CCCN1C(=O)[C@H](CO)NC(=O)[C@H](CO)NC(=O)[C@H](Cc1c[nH]cn1)NC(=O)[C@H](CCCNC(=N)N)NC(=O)[C@H](CC(C)C)NC(=O)[C@H](Cc1ccccc1)NC(=O)[C@H](Cc1c[nH]cn1)NC(=O)[C@H](C)NC(=O)[C@H](CC(C)C)NC(=O)[C@H](CCCNC(=N)N)NC(=O)[C@H](CCC(N)=O)NC(=O)[C@@H](NC(=O)[C@H](C)NC(=O)[C@@H]1CSSC[C@H](NC(=O)[C@@H](N)CCCCNC(=O)CC[C@H](NC(=O)CCCCCCCCCCCCCCCCCCC(=O)O)C(=O)O)C(=O)N[C@@H](CC(N)=O)C(=O)N[C@@H]([C@@H](C)O)C(=O)N[C@@H](C)C(=O)N[C@@H]([C@@H](C)O)C(=O)N1)[C@@H](C)O)C(=O)N1CCC[C@H]1C(=O)N[C@@H](CO)C(=O)N[C@@H](CO)C(=O)N[C@H](C(=O)N[C@@H](CC(N)=O)C(=O)N[C@H](C(=O)NCC(=O)N[C@@H](CCCNC(=N)N)C(=O)N[C@@H](CC(N)=O)C(=O)N[C@H](C(=O)N[C@@H](Cc1ccc(O)cc1)C(N)=O)[C@@H](C)O)C(C)C)[C@@H](C)O
notes: Analogue of human amylin; disulfide and C-terminal amide as told for h-amylin; also called compound 85
As for B4, the IC50 with rat calcitonin receptor [1] is 146 nM. The “Ratio hCT/hAmylin binding” value in assay [2] was determined as 91.8. In the assay with rat calcitonin receptor [3], the “Ratio rCT/rAmylin binding” value was determined as 46.5.
